From paper PMC3948368 come the findings set out here.

The target of the data set is EGFRvIII (on U87-EGFRvIII cells) del30-297 (UniProt P00533). In words: cell ELISA. The following applies: apparent Kd, fixed U87-EGFRvIII cells, 3% BSA in PBST block (PBS, 0.01% Tween 20, pH 7.4), 37 C 40 min, SELEX binding buffer: PBS, 5 mM MgCl2, glucose, yeast tRNA, salmon …. Background: An ELISA detects its analyte on a solid surface through an enzyme-linked reagent.

Regarding “ATCCAGAGTGACGCAGCATGAATCTTTTCTTTTGGTTTTGATATTTATAGTTGGTGAATGGACACGGTGGCTTAGT [U8]”, the Kd came out at 4.35 nM.
The result for “ATCCAGAGTGACGCAGCATTTTGACGCTTTATCCTTTTCTTATGGCGGGATAGTTTCGTGGACACGGTGGCTTAGT [U2]” reads 3.37 nM.
